Data as given in paper PMC12707363.

What was measured:
[1] = SEC; analytical SEC (AdvanceBio SEC 200 Å) of the purified Int^N precursor alone; each protein diluted to 10 µM and incubated for 24 h at 15 °C before the run; monomer against soluble high-MW aggregates eluting at the void volume
[2] = SEC; SEC of the Int^N precursors with the native single cysteine (Figure S3c), no reducing agent; conditions not shown

Substance	percent soluble high-MW aggregates [1] [%]	percent aggregated species [2] [%]
MBP‐CP21^N(C43S)‐H6	77	
MBP‐CP21^N‐H6		90
MBP‐GOM^N(C57S)‐H6	76	
MBP‐GOM^N‐H6		78
